Experimental data from article PMC11532494 (Nature Communications, 2024).
Values joined by “and” are separate entries in the source; they are usually repeats but may differ in a detail not shown here. Equal values may be shown once. Read-outs that look alike come from different tables or passages of the source. No end group written: not given here. *: point of attachment. AMC = Cc1cc(=O)oc2cc(N*)ccc12

Tests used:
VcHdaH (5b) = format: biochemical, Vibrio cholerae
LcApaH (3) = LcApaH (3) (Legionella cherrii, UniProt A0A0W0SGS1); format: biochemical
Controls [1] = format: biochemical
Controls [2] = format: biochemical; remark: listed apart in the source
RsPrpH (1b) = assay: Substrate screening assay (acyl-peptide-AMC); format: biochemical, Rhizorhabdus sp.
RwDmhA (1b) = RwDmhA (1b) (Rhizorhabdus wittichii, UniProt A0A067XIQ6); format: biochemical
LpApaH (3) = LpApaH (3) (Legionella pneumophila, UniProt A0A2S6EWV0); format: biochemical
PsApaH (4) = PsApaH (4) (Pseudomonas sp. M30-35, UniProt A0A1Y0KY79); format: biochemical
Experimental: (§1) Experiments with SIRT2 and SIRT5 were supplemented with NAD^+ (500 µM). Thereafter, a solution of trypsin (25 µL, 5.0 mg/mL; final concentration of 2.5 mg/mL) was added, and the development of the assay was allowed to proceed for 90 min at room temperature before fluorescence analysis. […] To this end, a single category is given to all conversions >48% on the heatmap. […] For the H4-derived peptide LGKbio no positive control was available.

KpHdaH (1b) = KpHdaH (1b) (Klebsiella pneumoniae, UniProt A0A377Z5F6); format: biochemical
VsHdaH (1b) = format: biochemical, Vibrio sp.
BsAcuC (2c) = target: T1, BsAcuC (2c) (Bacillus subtilis, UniProt P39067); assay: Substrate screening assay (acyl-peptide-AMC); format: biochemical
T1 construct: made in house; host or cells: E. coli BL21 (DE3)
T1 sequence (P39067 1-387): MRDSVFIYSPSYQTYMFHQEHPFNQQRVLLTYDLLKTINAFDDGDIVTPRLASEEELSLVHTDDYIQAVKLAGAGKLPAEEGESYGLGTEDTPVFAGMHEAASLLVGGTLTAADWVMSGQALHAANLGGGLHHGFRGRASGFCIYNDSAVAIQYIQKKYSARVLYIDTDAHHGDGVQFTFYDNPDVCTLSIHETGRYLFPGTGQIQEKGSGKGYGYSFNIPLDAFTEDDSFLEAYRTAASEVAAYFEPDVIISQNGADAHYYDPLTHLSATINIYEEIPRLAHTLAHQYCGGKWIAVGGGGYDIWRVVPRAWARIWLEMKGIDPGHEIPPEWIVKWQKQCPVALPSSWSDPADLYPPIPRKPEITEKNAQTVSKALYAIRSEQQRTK
Experimental: as §1

[3] = substrate screening, mean of two measurements
[4] = substrate screening, measurement 1 of two
[5] = substrate screening, measurement 2 of two
[6] = two measurements, single values

QPKKdec (QPKK-{AMC}; not fully specified (residue 4); printed as QPKKdec; also: decanoyl-lysine (which Lys not given here); UniProt P04637 317-320, looked up, fragment)
RFU means, VcHdaH (5b) (VcHdaH (5b); means of two measurements): 53.5 RFU
RFU*2 means, VcHdaH (5b) (VcHdaH (5b); means of two measurements): 107 RFU*2
[AMC] (nM), VcHdaH (5b), means (VcHdaH (5b); [3]): 52.25 nM
RFU means, LcApaH (3) (LcApaH (3)): 167 RFU
RFU*2, LcApaH (3) (LcApaH (3)): 294 RFU*2 and 374 RFU*2
RFU*2 means, LcApaH (3) (LcApaH (3)): 334 RFU*2
RFU, LcApaH (3) (LcApaH (3)): 147 RFU and 187 RFU
[AMC] (nM), LcApaH (3) (LcApaH (3)): 143.55 nM and 182.62 nM
[AMC] (nM), LcApaH (3), means (LcApaH (3)): 163.09 nM
RFU means, controls (Controls [1]): 16210.5 RFU
RFU*2, controls (Controls [1]): 29980 RFU*2 and 34862 RFU*2
RFU*2 means, controls (Controls [1]): 32421 RFU*2
RFU, controls (Controls [1]): 14990 RFU and 17431 RFU
[AMC] (nM), controls, means (Controls [2]): 15830.57 nM
RFU means, RsPrpH (1b) (RsPrpH (1b); means of two measurements): 37.5 RFU
RFU*2 means, RsPrpH (1b) (RsPrpH (1b); means of two measurements): 75 RFU*2
[AMC] (nM), RsPrpH (1b), means (RsPrpH (1b); [3]): 36.62 nM
[AMC] (nM), RsPrpH (1b) (RsPrpH (1b); [4]): 31.25 nM
[AMC] (nM), RsPrpH (1b) (RsPrpH (1b); [5]): 41.99 nM
RFU*2, RsPrpH (1b) (RsPrpH (1b); [6]): 64 RFU*2 and 86 RFU*2
RFU, RsPrpH (1b) (RsPrpH (1b); [6]): 32 RFU and 43 RFU
RFU means, RwDmhA (1b) (RwDmhA (1b); means of two measurements): 33 RFU
RFU*2 means, RwDmhA (1b) (RwDmhA (1b); means of two measurements): 66 RFU*2
[AMC] (nM), RwDmhA (1b), means (RwDmhA (1b); [3]): 32.23 nM
[AMC] (nM), RwDmhA (1b) (RwDmhA (1b); [4]): 18.55 nM
[AMC] (nM), RwDmhA (1b) (RwDmhA (1b); [5]): 45.90 nM
RFU means, LpApaH (3) (LpApaH (3)): 175 RFU
RFU*2, LpApaH (3) (LpApaH (3)): 316 RFU*2 and 384 RFU*2
RFU*2 means, LpApaH (3) (LpApaH (3)): 350 RFU*2
RFU, LpApaH (3) (LpApaH (3)): 158 RFU and 192 RFU
[AMC] (nM), LpApaH (3) (LpApaH (3)): 154.30 nM and 187.50 nM
[AMC] (nM), LpApaH (3), means (LpApaH (3)): 170.90 nM
RFU means, PsApaH (4) (PsApaH (4); means of two measurements): 97 RFU
RFU*2 means, PsApaH (4) (PsApaH (4); means of two measurements): 194 RFU*2
[AMC] (nM), PsApaH (4), means (PsApaH (4); [3]): 94.73 nM
[AMC] (nM), PsApaH (4) (PsApaH (4); [4]): 91.80 nM
[AMC] (nM), PsApaH (4) (PsApaH (4); [5]): 97.66 nM
RFU*2, PsApaH (4) (PsApaH (4); [6]): 200 RFU*2 and 188 RFU*2
RFU, PsApaH (4) (PsApaH (4); [6]): 100 RFU and 94 RFU
RFU means, KpHdaH (1b) (KpHdaH (1b); means of two measurements): 58 RFU
RFU*2 means, KpHdaH (1b) (KpHdaH (1b); means of two measurements): 116 RFU*2
[AMC] (nM), KpHdaH (1b), means (KpHdaH (1b); [3]): 56.64 nM
[AMC] (nM), KpHdaH (1b) (KpHdaH (1b); [4]): 48.83 nM
[AMC] (nM), KpHdaH (1b) (KpHdaH (1b); [5]): 64.45 nM
RFU*2, KpHdaH (1b) (KpHdaH (1b); [6]): 100 RFU*2 and 132 RFU*2
RFU, KpHdaH (1b) (KpHdaH (1b); [6]): 50 RFU and 66 RFU
RFU means, VsHdaH (1b) (VsHdaH (1b); means of two measurements): 82 RFU
RFU*2 means, VsHdaH (1b) (VsHdaH (1b); means of two measurements): 164 RFU*2
[AMC] (nM), VsHdaH (1b), means (VsHdaH (1b); [3]): 80.08 nM
[AMC] (nM), VsHdaH (1b) (VsHdaH (1b); [4]): 61.52 nM
[AMC] (nM), VsHdaH (1b) (VsHdaH (1b); [5]): 98.63 nM
RFU*2, VsHdaH (1b) (VsHdaH (1b); [6]): 126 RFU*2 and 202 RFU*2
RFU, VsHdaH (1b) (VsHdaH (1b); [6]): 63 RFU and 101 RFU
RFU means, BsAcuC (2c) (BsAcuC (2c); means of two measurements): 1377 RFU
RFU*2 means, BsAcuC (2c) (BsAcuC (2c); means of two measurements): 2754 RFU*2
[AMC] (nM), BsAcuC (2c), means (BsAcuC (2c); [3]): 1344.73 nM
RFU*2, BsAcuC (2c) (BsAcuC (2c); [6]): 3196 RFU*2 and 2312 RFU*2
